Experimental data reported in the domain aggregation screens of Martell et al. (2025).

Assay: soluble fraction after stress (log2 fold change); higher = more stays soluble; pooled small domains, quantitative proteomics
Details: stress: 50 degC
Summary of the method: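 Pooled custom libraries of small protein domains were measured in a high-throughput format, with quantitative proteomics as the read-out. Each library was stressed at 50°C. Aggregation propensity is given as the base-two logarithm of the fold change in how much of each protein stays soluble after the stress. Higher values mean a larger share of the protein remains in solution.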

Sequence | soluble fraction (log2)
HMRDKSITFSEFVKLLDEGQIQKVTLTGNEILGTQKSGDKFRTYAPPQYEGLGNKLVERSVEVTAKE | 0.207
HMRDLVTYVVQVNGKLRGKLEVSPSTDDNSLKTMALELENVQRALEGLSVKKVIVIPGKMVSIAAG | 0.167
HMRDVVVVPDLSGLTQMEALSKLDAESLNIGEINYGVSEMPEGVIFKQDPVYGTELMKGDTVDIFISGR | -0.527
HMRDYKTHLQEVLQSKGEVNIWYKLIDEKGPDHNKKFVMQVGIDSKILGFGEGKSKKEAEQVAARKALDNI | -0.118
HMREGIQLGDPVRVIRDPLFGKIGAVSGLPSELRAIPTESEVRVLEVRFPDGTTTVVPRANIEVIEG | 0.364
HMREIEVNYAAGDSVRVIDGPLAGFIGVVSSVEPDKNKVNVTVSMFGRETPVELELDQVETLD | 0.159
HMREISSDELHSLFSADQRGDLVINETTRLSIEKLYALHTPEEREAKVNELSGVLPSEAHRQLVHFLDYFD | -1.26
HMREITVEELYELEGIRIVGTIPGISAWVAESGRQMVFLVGQKVKGHDLLEVGESRVVLRKGDSVVNVLL | -0.0622
HMREKPRETFQRIAEKVGQTLRKGPVRVQQMDLLFSESREQVMEVLRAMAESGEIRIQDDTLHWNGHT | 0.311
HMRELPKRPEIRYAAGDRVFHKAFGNGLVKQVAQTAGGARVTVDFGEGKGVKTFAGDAPMIKI | 0.342
HMRELSDFEKLLFTTTLERKMINLAMLLTRSNKADSKDLIQDSYLKAIENQVQFNGNNIDAWVITILKNTF | 0.139
HMRENAARNRNVNLDIGETLRVDAWSPERRARVQYRGAAWDVELAPNAPATVGEFRIVEVRGNVLVVTP | 0.0231
HMREPIPVPSRPIRAGDLVEIPGTNRPAEVTAVKGDRLVLKAGVLSMTVKNDEVRLIEDDERAAM | 0.0715
HMREQAHEVAGKLGYPVMVKASAGGGGKGIRIVRTEDELDQAFEAAQSETKAAFGDDQMYMEKVI | 0.00859
HMRESDQSTVELSLERTIQEALMVNPRTSSVEEFSFEWGTGRVKVSFIVYSVDGEPFTVDSIIE | -2.27
HMREVEAPRDLLAALGERPGALDAWKALSFTHQREYVEAIEDARKPETRERRIANAVKMVAERS | 0.285
HMREVPHGEYEVKIEKLELVESKAGDPMVTVWFKVLAGDYKGSMIFMNQVITKGFQIHIMNEFLR | -0.256
HMREYEKAVDYVRRMISSGSLNVGDRLPTERELSLELDISRNSTREAMRMLENMGIIVSRHGSGNYISGN | -0.594
HMRFDADELQKAYDLFDADENTPFKTIKQAYYALARRHHPDKNGDQEYFKVINNAFQLIQEHRRRRDN | -0.246
HMRFGNHHVYRTLMVLSDQKRKGRKQIADAVGIGEGSMRTIIEYLRGLDMIDIRQTGVKITRHGNAFL | 0.0164
HMRGAARRDRAVGERAVSKDTILDATRALLRKGSALEIRAIDIAEESGLSRQTVFQYYPVIRLIFFELSD | 0.138
HMRGETSYANDIIKRLKQANLIVVEGTLYPLLNRLKKDGLLHYEWRESQQGPPRKYYGLTEEGEA | -0.132
HMRGFGEVGQLPSGRYRARYTGPDGGRHSAPITFVARIDAEGWLVDQERMISRGEWEPPARQ | -0.224
HMRGFGYVRRLPSKRYQASYAGPDLQRHVAPTTFTTKADAESWLGAERKVVESGSWRPPAVREAEARLS | 0.357
HMRGLIEPLSQRELEVLMLMARGQSNAHIADQLNISENTIKWHGRNIFGKLGVSNRTEAVITSQEMGMLAT | -0.621

Sequence | soluble fraction (log2)
HMRGRFGNAAPARNLGDHPQGGAINVKAGRYGPYVSWGKVNATLPKDSDPEKVTLEEAVALIAAKQSGQG | -0.103
HMRGVDRPLTLPRHWRRNAGRLVKVTLANGSAVTGRVLDPGEERVTLEVSGERHEVAYADVKKALVQVEF | -0.169
HMRHLSVPNRQVEGALDHIRSQGWLAEGMRVFASEDGSARLIPLGPGAPLEMLEPLAKFDVISHEGKPY | -0.0914
HMRHSLAAALTELRRLAALDLGDFFRFEYVSHTDSLGGKQQAYTEGIRVSFGVYLGVNKKDRLNVDPVV | -3.44
HMRHTRQRQAVLDALVRSGQALSPQDLLGQAKSAVPSLNLSTVYRQIKGLQDAGQIVRVELPGQPPRFEM | -0.107
HMRIAQYRQIENDLLEQINLGYYKKGDLIPTELELSATYHVSRVTVRKATDNLVAKGILQRVAGVGTFVSR | -1.87
HMRIATVTPIEEDQASDRVVAVYNDIKSTKQIDFIPNFWKVIAVNPDLLEQVWGQLKTLMHPEEVG | -0.659
HMRIEDTMDYINKIKEKLKNNGGVITSKEFTRSNIPTIYLTRMVETGELIRIDRGIYINSSG | -0.538
HMRIEYYDDEELDRYIGTPASGYREAAVEEFREILLTLDADDVPGWVRSLQLRGIEFPESLRPELYL | -0.575
HMRIFDDNMIFPTEAEISAALKRLVMDLPKVGFLQGHGERAVDNVGERAYSMFTHANNFRYALINQGFVT | -0.176
HMRIHKQLGDRIRNLRLSSGMNQEELAFKSGISAAHLGQIERGLKSPTISTIQKIAKALNVTLPILF | -0.298
HMRININNASARQIADALPGVGLKTARDIKDFQTTLSGERYTRLDQLHSIKRVDWDEIFKADLVRV | -0.0293
HMRISMRDQVYEIIKNRILSREYSLGEPINIVHLSKELGISNTPIREALSQLETERLITINSNQKYHVT | -0.154
HMRKDEFLQTLRRALNGNVPPRVVEENVRYYDGYISDEVRKGRSEEEVIEEIGDPRLIARTIEDTT | 0.0826
HMRKDRKVLMERGRHIFNDLLEKEGIVATNQLMTKLLASHHLRNRDELYLMLANDDISLSSKEIKDLS | 0.0203
HMRKEDYLPIGSVINMDDRKFRVDSVDFDKDKVSLQDMALADARMPIFWEEPLTVVRELYEQQDE | 0.0652
HMRKEPSYASDIITRLKEADLIVVEGTLYPLLTRLKKDGLLSYEWRESTQGPPRKYYALTLDGET | -0.455
HMRKIGDVLRLHAGGLSKRRIAVSLNIGRTAVGDYISRARRAGLGWPLPEDLSEEALERLLFPPP | -2.59
HMRKIVEGVLTKKEGKWYLLTDIETYKISDASAEYHKAELNDRASALIPAQNPKVPFASLEKVFN | -0.219
HMRKLHFVMSEIYEDHPWIGSKLQDVFLPKDIRVVLVERDSKQFMPNGQTLFELGDRLTLSALHYDPA | -3.02
HMRKLTDRQRQILDLIKTIIAETGAPPTRAEISTALGFKSANAAQEHLQALAQKGMIDLVSGASRGIRLRG | -0.379
HMRKMELTEAAEKLIEEPDVVSAYRNMQQIFQQWREIGPVPREQRDEVWSHFKDLMTQVNRRHQAHFEN | -0.0451
HMRKPLDQSWVPDDDAMKILTNSGIEKEFIKNEIPEFILYWSDKGEISDSWNTKFISQIRRQWAKNQ | -0.222
HMRKSAVSSTLTSIEGIGATRAKALLKHFKTVAAVSEADLKELEDAPGMTRPSALRVYEYFHGK | -0.165
HMRKSLGEIVFDRMERAIKSGAYSPDERLPTELDLAAEFEVSRPVIRDALKRLRERGLIYSRQGAGSFVRA | -0.499

Sequence | soluble fraction (log2)
HMRKTIQDFLSSNKVDIAKLLTLALEKTKEDLYKNLSYNLTNKELEKLKLLIKKREQGIPFAYLS | -0.0368
HMRLADHVVEKLLALVQERGLQPGQKLPAERQLAEVLGVSRTSVREAIQKLVSQGVLSARRGDGTYVQS | 0.00808
HMRLANGIGTVYKLSGNRRNPYIVRKTTGWEIDEESGKAKQKYITIGYAPTRAKGLEMLMDYNKNP | -0.428
HMRLDHIFSVVERLKGVSLGAGDRLEVQKYEDLLTVYKSKNALSSEEAQTLNDILASLLKMMAKYD | -0.00461
HMRLDSELVSARLHRFMGTNRKPDGEIVEKIAAILEGHPIETLDAFLQSLNGRKIKSYGFFPTVLRREIAN | -0.319
HMRLEEVSVPQRLLAAIAEEREVQIGIVDGRGGTRVLRVEPLALEGGRLRARDVESGEEFTVLIHRVLL | -0.274
HMRLLAESIARGLDPEGSGGLWAKEAGAEALKLMETLAAEAPHGGSFTAAAYRDLFESLVHQGEVREA | 0.0472
HMRLLGEPLAGRLKKDVPVVTGRSTESKAIAQFFELRWSHLPDPEARTISVASGRIDFMDVGATRFSLR | 0.054
HMRLSDSEFESIENAIKEKLENSALTADVLVKELSFDEDKIWKVIRWLEDAEKISEDEAGTLLWKPR | -0.22
HMRLSESLLDDIPGIGAARKRALLQSFGSVRKLRHADAEEIAAKVPGIGLNFAEKIVEALRKK | 0.205
HMRLTTTPKTARGLTTMNRIIRAAEVEFGRKGYHYTGITDIAQRAKVASGTIYLYFTDKYSLYVHLLT | 0.246
HMRLYTQDVAVLNRDVIQGEVITSDMVTTVNVHKRTVPTGALNLSEIPGNVAKFNIPASIPITASMVTK | 0.0171
HMRMLLKELLIQYEVKNDKSHVEVAKEVGVSLSTYYRWLNGESLHLKKRTIDRLSEVLHYDINQVVEES | -2.35
HMRMLSEGAQRMLRGLAVLEEASADRLLELHQGDYPGFVRSLFALESAGLFQRNGSGTWIRR | -0.819
HMRMNASERQNQIVDLLSQNGVMKIMDIADHFNVSRETIRRDLIILEDDNRIKKWFGGVISAN | -0.461
HMRMQRYYLTDMSEKGREALPGVLDEMGYAGRYTMSDNSIAINSNMIVLSKAIKRAEDIAHNE | -0.086
HMRMRPNERQKRIIELLSFRRHETIGNFANEFGVSRDTIKRDIITLQEEYPIISERGYEGGISLPDGYYI | -0.263
HMRMSLDEAKAVVLPIGEYKGRNMGEVLAIKPELIDFYASQKFNSSKYPYLKEAAQVILENQ | -0.0538
HMRMSPRERKIYQFIENHPGTKSGEMAEKLGIPLPTIKRLLSDMVASKLLQKHGTGAGTNYSIEE | 0.201
HMRMSQLSRLISILTLLKSKRLLTATELAEKYDVSIRTVYRDIRKLEEAGIPVYTIEGRGYSLMDNYT | -1.6
HMRNANENTLKDLPVAVPNIHVSNIEEKKDFHLIQLEYSQEFDPREDLFNFAVNSSWVILKMTPT | 0.422
HMRNDIFDQLTEREMQILQEVAKGYRNKQIADHLFISESTVKVHMKSLLKKLQVPSRTAATVLYLERYG | -1.66
HMRNEFEAHSDGTRIQLNDRSKATFSVYDVQGRLIHSFQDFSGSSFNIEPKNQLLIITRETAEGVSVKKLV | 0.0942
HMRNKTVKEVLDYIEKNSEFIFFYYSKAIDTKRIVSLSVKDQPITVILDQLFKNTDVLYEIKDRQISLKRE | 0.277
HMRNTETMKEIQAFVEDYFFEYHQSPSMQKVADAIGTSKSTAYYYVMEMARNGMLHYDGKTIETPHTQKS | -1.09
